Laboratory results taken from US20240167070A1 (NANYANG TECHNOLOGICAL UNIVERSITY, published 2024).
Starred links: 1 amine or outer side, 2 acyl side, 3 side chain; linkers in the order of their positions; H or OH if unused. Non-standard residues stand in square brackets, D forms with d. Primed or numbered codes have the meaning given here. No end group written: not given here. Asn(OH)″ = N^γ-hydroxy-L-asparagine (L-aspartic acid β-hydroxamate), O=C(C[C@H](N[*:1])C(=O)[*:2])NO; Asn(OH) = N-gamma-hydroxy-L-asparagine, O=C(C[C@H](N[*:1])C(=O)[*:2])NO[*:3]

How the values were obtained:
[1] = target: T1, matrix metalloprotease 2 (MMP2) (UniProt P08253 110-660, limits assumed); assay: MMP2 and MMP9 FRET-substrate inhibition assays
T1 construct: also called matrix metalloproteinases 2
T1 sequence (looked up): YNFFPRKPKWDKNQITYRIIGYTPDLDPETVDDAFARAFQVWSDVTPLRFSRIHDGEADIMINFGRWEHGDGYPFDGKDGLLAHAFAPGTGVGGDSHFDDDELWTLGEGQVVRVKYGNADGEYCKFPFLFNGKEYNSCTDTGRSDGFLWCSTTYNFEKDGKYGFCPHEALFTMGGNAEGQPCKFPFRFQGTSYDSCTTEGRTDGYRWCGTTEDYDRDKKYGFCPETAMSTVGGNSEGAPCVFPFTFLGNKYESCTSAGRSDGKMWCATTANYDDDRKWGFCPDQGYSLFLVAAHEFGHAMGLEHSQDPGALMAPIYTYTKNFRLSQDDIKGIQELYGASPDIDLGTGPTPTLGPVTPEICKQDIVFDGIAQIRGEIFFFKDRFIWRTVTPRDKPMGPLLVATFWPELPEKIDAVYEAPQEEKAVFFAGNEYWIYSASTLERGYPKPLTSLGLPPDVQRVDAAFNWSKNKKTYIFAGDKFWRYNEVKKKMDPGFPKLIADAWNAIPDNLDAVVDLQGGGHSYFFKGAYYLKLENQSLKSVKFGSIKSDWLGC
Description: (§1) The inhibitory activity of the peptides was determined by measuring the MMPs' protease activity towards a FRET substrate. […] MMP2 was pre-incubated with the peptide inhibitors for 10 min before adding the substrate.

[2] = target: MMP9 (UniProt P14780 107-707, limits assumed); assay: MMP9 FRET-substrate inhibition assay; Ki = IC50/(1+[S]0/Km)
Sequence of MMP9 (P14780 107-707 limits assumed): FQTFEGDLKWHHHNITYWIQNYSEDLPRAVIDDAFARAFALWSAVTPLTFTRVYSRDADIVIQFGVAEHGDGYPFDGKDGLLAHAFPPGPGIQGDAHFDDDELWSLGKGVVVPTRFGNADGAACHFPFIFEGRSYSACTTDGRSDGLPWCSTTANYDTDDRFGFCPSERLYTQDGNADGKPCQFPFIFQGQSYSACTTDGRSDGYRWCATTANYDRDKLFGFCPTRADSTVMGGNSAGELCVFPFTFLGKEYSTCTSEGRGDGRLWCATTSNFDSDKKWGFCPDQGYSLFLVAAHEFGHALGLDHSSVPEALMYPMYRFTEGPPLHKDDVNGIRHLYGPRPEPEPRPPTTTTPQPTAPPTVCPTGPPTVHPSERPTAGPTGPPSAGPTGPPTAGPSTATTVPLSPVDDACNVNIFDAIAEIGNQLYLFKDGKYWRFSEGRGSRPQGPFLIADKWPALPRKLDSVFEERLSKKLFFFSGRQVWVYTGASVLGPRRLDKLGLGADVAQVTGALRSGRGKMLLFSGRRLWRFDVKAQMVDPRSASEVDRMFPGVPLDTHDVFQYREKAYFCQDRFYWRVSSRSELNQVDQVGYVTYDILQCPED
Description: as §1

[3] = target: T1, matrix metalloprotease 2 (MMP2); assay: MMP2 FRET-substrate inhibition assay; Ki = IC50/(1+[S]0/Km)
Description: as §1

[4] = target: T1, matrix metalloprotease 2 (MMP2); assay: MMP2 FRET-substrate inhibition assay
Description: as §1

[5] = target: T1, matrix metalloprotease 2 (MMP2); assay: cell-based or functional assay
[6] = target: trypsin; assay: cell-based or functional assay
Sequence of trypsin (P00760 24-246): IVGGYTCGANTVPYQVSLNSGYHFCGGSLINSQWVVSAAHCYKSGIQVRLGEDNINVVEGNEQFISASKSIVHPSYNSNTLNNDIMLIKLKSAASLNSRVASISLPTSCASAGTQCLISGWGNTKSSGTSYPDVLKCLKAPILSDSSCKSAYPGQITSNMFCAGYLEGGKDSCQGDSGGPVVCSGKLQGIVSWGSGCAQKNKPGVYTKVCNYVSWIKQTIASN

[7] = target: trypsin; assay: trypsin FRET-substrate inhibition assay; Ki = IC50/(1+[S]0/Km)

B1: Asn(OH)-RTD1 17, cyclo[SYCN(OH)CLCRRGVCRCICTI] (peptide)
peptide: cyclo(SYC[Asn(OH)]CLCRRGVCRCICTI)
modifications: disulfide (positions not given here); not fully specified (bridges); printed as cyclo[SYCN(OH)CLCRRGVCRCICTI]; also: oxidatively folded disulfides, pairing not given here
notes: also called peptide 17; grafted peptide 17
For B1, the “fold more potent towards MMP2 than MMP9” value [1] was about 1000 fold, the Ki [2] was 2680 nM and the Ki [3] was 2.8 nM. The “fold better binding affinity against Asn-RTD-1 19” value [4] was 13 fold, the “fold better binding affinity against Asp-RTD-1 18” value [4] was 2.3 fold and the “fold improvement of Ki against the linear Asn(OH)-APP-IP peptide 9” value [4] was 8.2 fold.

B2: cyclo[…(OH)ALMPSGA] (peptide)
peptide: cyclo(GSGISYGQ[Asn(OH)]ALMPSGA)
SMILES: CC[C@H](C)[C@@H]1NC(=O)CNC(=O)[C@H](CO)NC(=O)CNC(=O)[C@H](C)NC(=O)CNC(=O)[C@H](CO)NC(=O)[C@@H]2CCCN2C(=O)[C@H](CCSC)NC(=O)[C@H](CC(C)C)NC(=O)[C@H](C)NC(=O)[C@H](CC(=O)NO)NC(=O)[C@H](CCC(N)=O)NC(=O)CNC(=O)[C@H](Cc2ccc(O)cc2)NC(=O)[C@H](CO)NC1=O
notes: also called peptide 13
In the case of B2, the “IC50” value [5] is reported as 18400 nM and the Ki [3] is reported as 12000 nM.

B3: rhesus theta defensin-1 (RTD-1) 16, cyclo[GFCRCLCRRGVCRCICTR] (peptide)
peptide: cyclo(GFCRCLCRRGVCRCICTR)
modifications: disulfide (positions not given here); not fully specified; printed as cyclo[GFCRCLCRRGVCRCICTR]
notes: also called peptide 16; native RTD-1
With B3 the Ki [3] was 60 nM.

B4: cyclo[…(OH)ALMPSGYM] (peptide)
peptide: cyclo(ATSGISYGQ[Asn(OH)]ALMPSGYM)
SMILES: CC[C@H](C)[C@@H]1NC(=O)CNC(=O)[C@H](CO)NC(=O)[C@H]([C@@H](C)O)NC(=O)[C@H](C)NC(=O)[C@H](CCSC)NC(=O)[C@H](Cc2ccc(O)cc2)NC(=O)CNC(=O)[C@H](CO)NC(=O)[C@@H]2CCCN2C(=O)[C@H](CCSC)NC(=O)[C@H](CC(C)C)NC(=O)[C@H](C)NC(=O)[C@H](CC(=O)NO)NC(=O)[C@H](CCC(N)=O)NC(=O)CNC(=O)[C@H](Cc2ccc(O)cc2)NC(=O)[C@H](CO)NC1=O
notes: also called peptide 14
B4 was tested, and the “IC50” value [5] was 3340 nM and the Ki [3] was 2180 nM.

B5: cyclo[SGISYGQN(OH)ALMPSG] (peptide)
peptide: cyclo(SGISYGQ[Asn(OH)″]ALMPSG)
SMILES: CC[C@H](C)[C@@H]1NC(=O)CNC(=O)[C@H](CO)NC(=O)CNC(=O)[C@H](CO)NC(=O)[C@@H]2CCCN2C(=O)[C@H](CCSC)NC(=O)[C@H](CC(C)C)NC(=O)[C@H](C)NC(=O)[C@H](CC(=O)NO)NC(=O)[C@H](CCC(N)=O)NC(=O)CNC(=O)[C@H](Cc2ccc(O)cc2)NC(=O)[C@H](CO)NC1=O
notes: also called peptide 12
For B5, the “IC50” value [5] was 10700 nM and the Ki [3] was 6980 nM.

B6: cyclo[…(OH)ALMPSGQYM] (peptide)
peptide: cyclo(ATRSGISYGQ[Asn(OH)″]ALMPSGQYM)
SMILES: CC[C@H](C)[C@@H]1NC(=O)CNC(=O)[C@H](CO)NC(=O)[C@H](CCCNC(=N)N)NC(=O)[C@H]([C@@H](C)O)NC(=O)[C@H](C)NC(=O)[C@H](CCSC)NC(=O)[C@H](Cc2ccc(O)cc2)NC(=O)[C@H](CCC(N)=O)NC(=O)CNC(=O)[C@H](CO)NC(=O)[C@@H]2CCCN2C(=O)[C@H](CCSC)NC(=O)[C@H](CC(C)C)NC(=O)[C@H](C)NC(=O)[C@H](CC(=O)NO)NC(=O)[C@H](CCC(N)=O)NC(=O)CNC(=O)[C@H](Cc2ccc(O)cc2)NC(=O)[C@H](CO)NC1=O
notes: also called peptide 15
In the case of B6, the “IC50” value [5] is reported as 354 nM and the Ki [3] is reported as 231 nM.

B7: cyclo[SISYGQN(OH)ALMPG] (peptide)
peptide: cyclo(SISYGQ[Asn(OH)″]ALMPG)
SMILES: CC[C@H](C)[C@@H]1NC(=O)[C@H](CO)NC(=O)CNC(=O)[C@@H]2CCCN2C(=O)[C@H](CCSC)NC(=O)[C@H](CC(C)C)NC(=O)[C@H](C)NC(=O)[C@H](CC(=O)NO)NC(=O)[C@H](CCC(N)=O)NC(=O)CNC(=O)[C@H](Cc2ccc(O)cc2)NC(=O)[C@H](CO)NC1=O
For B7, the “IC50” value [5] was over 100000 nM.

B8: β-amyloid precursor protein-derived inhibitory peptide (APP-IP) 8, ISYGNDALMP (peptide)
peptide: ISYGNDALMP-NH2
notes: Linear 10-mer; also called peptide 8; linear APP-IP 8
In the case of B8, the “IC50” value [5] is reported as 92 nM and the Ki [3] is reported as 60 nM.

B9: Asn(OH)-APP-IP peptide 9, ISYGNN(OH)ALMP (peptide)
peptide: ISYGN[Asn(OH)″]ALMP-NH2
modifications: N-terminus assumed
SMILES: CC[C@H](C)[C@H](N)C(=O)N[C@@H](CO)C(=O)N[C@@H](Cc1ccc(O)cc1)C(=O)NCC(=O)N[C@@H](CC(N)=O)C(=O)N[C@@H](CC(=O)NO)C(=O)N[C@@H](C)C(=O)N[C@@H](CC(C)C)C(=O)N[C@@H](CCSC)C(=O)N1CCC[C@H]1C(N)=O
notes: Linear 10-mer; also called linear Asn(OH)-APP-IP peptide 9
With B9 the “IC50” value [5] was 35 nM, the Ki [3] was 23 nM and the “fold improvement of inhibitory activity against APP-IP 8” value [4] was 2.6 fold.

B10: cyclo[ISYGQN(OH)ALMP] (peptide)
peptide: cyclo(ISYGQ[Asn(OH)″]ALMP)
SMILES: CC[C@H](C)[C@@H]1NC(=O)[C@@H]2CCCN2C(=O)[C@H](CCSC)NC(=O)[C@H](CC(C)C)NC(=O)[C@H](C)NC(=O)[C@H](CC(=O)NO)NC(=O)[C@H](CCC(N)=O)NC(=O)CNC(=O)[C@H](Cc2ccc(O)cc2)NC(=O)[C@H](CO)NC1=O
notes: also called peptide 10
With B10 the “IC50” value [5] was 32500 nM and the Ki [3] was 21300 nM.

B11: Asp-RTD-1 18, cyclo[SYCDCLCRRGVCRCICTI] (peptide)
peptide: cyclo(SYCDCLCRRGVCRCICTI)
modifications: disulfide (positions not given here); also: oxidatively folded, disulfide pairing not given here
notes: Obtained by NaIO4 oxidation of Asn(OH)-RTD-1 17; also called peptide 18
B11 was tested, and the Ki [2] was 3290 nM and the Ki [3] was 6.5 nM.

B12: Asn-RTD-1 19, cyclo[SYCNCLCRRGVCRCICTI] (peptide)
peptide: cyclo(SYCNCLCRRGVCRCICTI)
modifications: disulfide (positions not given here); also: oxidatively folded disulfides, pairing not given here
notes: also called peptide 19
In the case of B12, the Ki [2] is reported as 5590 nM and the Ki [3] is reported as 36.5 nM.

B13: cyclic MCoTI-II, [GGVCPKILKKCRRDSDCPGACICRGNGYCGSGSD] (peptide)
peptide: cyclo(GGVCPKILKKCRRDSDCPGACICRGNGYCGSGSD)
modifications: not fully specified (bridges); also: three disulfide bonds, pairing not given here
notes: also called MCoTI-II 20; cyclo-MCoTI-II
In the case of B13, the “IC50” value [6] is reported as 2.01 nM and the Ki [7] is reported as 0.18 nM.
